As a reminder, the stoichiometry N is the number of molecules, sites or subunits per partner or assembly.

Several values for one entry are separate records, joined by “and”; a condition that tells them apart may be missing. Equal values may be shown once.

Stoichiometry N and fold, fraction of gp140 recovered as trimers against uncleaved gp140 data for six substances are collected here from publication PMC4528139.

The target in experiment [1] is Strep-tagged BG505 CR gp140 (uncleaved) (HIV-1 strain BG505). Nature of the experiment: native gel or EMSA. On the technique in general: A gel shift assay detects complexes by their altered migration in electrophoresis.
The target of experiment [2] is Strep-tagged JRFL CR664-gp140 (uncleaved) (HIV-1 strain JRFL). Nature of the experiment: negative stain EM.
Experiment [3] shares this target. The experiment can be described thus: SEC + native gel or EMSA; Strep-Tactin-purified gp140 on Superdex 200 in 25 mM Tris-HCl pH 8, 150 mM NaCl; fractions on blue native PAGE; 293F- or GnTI−-produced.
Experiment [4] shares this target. Nature of the experiment: native gel or EMSA.
The target in experiment [5] is Strep-tagged JRFL CP664-gp140 (cleaved trimer) (HIV-1 strain JRFL). The experiment can be described thus: negative stain EM.
Experiment [6] shares this target. The experiment can be described thus: SEC + native gel or EMSA; Strep-Tactin-purified gp140 on Superdex 200 in 25 mM Tris-HCl pH 8, 150 mM NaCl; fractions on blue native PAGE; 293F- or GnTI−-produced.
The target is the same in experiment [7]. Nature of the experiment: native gel or EMSA.
Experiment [8] deals with SF162 (clade B) gp140 trimer, Strep-tag approach (HIV-1 strain SF162). Nature of the experiment: not stated; trimers purified by the Strep-tag approach; manuscript in preparation.
Experiment [9] has as its target 40007 (clade CRF01 A-E) gp140 trimer, Strep-tag approach (HIV-1 strain 40007). Described as above.
The target in experiment [10] is JRFL foldon-gp140 (uncleaved foldon trimer) (HIV-1 strain JRFL | bacteriophage T4). Nature of the experiment: SEC + native gel or EMSA.

The substance “Strep-tagged BG505 CR gp140 (uncleaved) (natural protein)” registered a stoichiometry N in experiment [1] of 3.
Regarding “Strep-tagged JRFL CR664-gp140 (uncleaved) (natural protein)”, the stoichiometry N in [2] is 3; in experiment [3], 3; in experiment [4], 2 and 3.
Turning to “Strep-tagged JRFL CP664-gp140 (cleaved trimer) (complex)”, the stoichiometry N in experiment [5], in experiment [6] and in [7] was 3 throughout. In [6], the fold, fraction of gp140 recovered as trimers against uncleaved gp140 is 3 fold and 5 fold.
In the case of “SF162 (clade B) gp140 trimer, Strep-tag approach (natural protein)”, the stoichiometry N in experiment [8] was found to be 3.
The substance “40007 (clade CRF01 A-E) gp140 trimer, Strep-tag approach (natural protein)” came in with a stoichiometry N in experiment [9] of 3.
Turning to “JRFL foldon-gp140 (uncleaved foldon trimer)”, in experiment [10], the stoichiometry N turned out to be 3.
